Source: patent EP3088890B1 (Chugai Seiyaku Kabushiki Kaisha, dated 2020)

Legend:
[1] = target: T1, AW5, C-terminally His-tagged recombinant product of positions 1 to 357 of GPC3 (human, UniProt P51654 25-357); assay: Western blot analysis, CHO cell pellets
T1 construct: Expressed in CHO cells, cell pellets used in Western blot; The range is as printed and starts at position 1; also called AW5 (1-357); not shown: C-terminal His tag

[2] = target: T2, GPC3 peptide 321-350 (SEQ ID NO: 17) (human); assay: peptide ELISA, peptide on plate, antibody at 2 µg/mL
T2 construct: Synthetic 30-residue peptide of GPC3
T2 peptide: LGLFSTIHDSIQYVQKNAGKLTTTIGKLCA

[3] = target: T3, AW2, C-terminally His-tagged recombinant product of positions 1 to 196 of GPC3 (human, UniProt P51654 25-196); assay: Western blot, pellets of CHO cells expressing the product
T3 construct: Expressed in CHO cells, cell pellets used in Western blot; The range is as printed and starts at position 1; also called AW2 (1-196); not shown: C-terminal His tag
T3 sequence (P51654 25-196): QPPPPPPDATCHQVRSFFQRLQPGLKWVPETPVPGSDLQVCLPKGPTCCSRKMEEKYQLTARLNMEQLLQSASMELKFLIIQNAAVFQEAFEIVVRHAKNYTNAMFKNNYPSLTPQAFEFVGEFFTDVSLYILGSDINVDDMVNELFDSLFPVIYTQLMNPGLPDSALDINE

[4] = target: T4, AW3, C-terminally His-tagged recombinant product of positions 1 to 218 of GPC3 (human, UniProt P51654 25-218); assay: as above
T4 construct: Expressed in CHO cells, cell pellets used in Western blot; The range is as printed and starts at position 1; not shown: C-terminal His tag
T4 sequence (P51654 25-218): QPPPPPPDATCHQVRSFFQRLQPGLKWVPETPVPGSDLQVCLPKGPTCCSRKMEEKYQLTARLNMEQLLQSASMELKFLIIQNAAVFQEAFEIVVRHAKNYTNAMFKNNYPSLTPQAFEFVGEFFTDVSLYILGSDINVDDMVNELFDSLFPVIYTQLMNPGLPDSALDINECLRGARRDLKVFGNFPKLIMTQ

[5] = target: GPC3 core (sGPC3-His) protein (human) (UniProt P51654); assay: ELISA on plate-bound sGPC3; biotin-labeled GT30, no unlabeled antibody
Sequence of GPC3 core (sGPC3-His) protein (human) (P51654 25-563 S495A/S509A): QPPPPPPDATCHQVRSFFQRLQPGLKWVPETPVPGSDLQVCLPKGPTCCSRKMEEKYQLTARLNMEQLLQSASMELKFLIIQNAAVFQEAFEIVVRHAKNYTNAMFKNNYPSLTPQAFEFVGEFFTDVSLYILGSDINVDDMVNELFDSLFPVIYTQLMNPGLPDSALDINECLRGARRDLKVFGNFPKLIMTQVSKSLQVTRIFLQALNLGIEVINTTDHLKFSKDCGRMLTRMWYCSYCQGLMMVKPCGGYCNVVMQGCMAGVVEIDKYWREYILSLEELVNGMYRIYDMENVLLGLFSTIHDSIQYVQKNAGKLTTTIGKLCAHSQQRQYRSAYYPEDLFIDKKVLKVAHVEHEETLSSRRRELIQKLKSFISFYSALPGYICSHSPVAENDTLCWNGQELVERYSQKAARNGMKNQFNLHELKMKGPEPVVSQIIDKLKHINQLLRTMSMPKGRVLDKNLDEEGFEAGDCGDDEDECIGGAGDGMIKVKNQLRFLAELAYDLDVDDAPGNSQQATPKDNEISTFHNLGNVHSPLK

[6] = target: GPC3 core (sGPC3-His) protein (human) (UniProt P51654); assay: competition ELISA on plate-bound sGPC3; unlabeled GT30 (100-fold) against competitor biotin-labeled GT114
[7] = target: GPC3 core (sGPC3-His) protein (human) (UniProt P51654); assay: competition ELISA on plate-bound sGPC3; unlabeled GT30 (100-fold) against competitor biotin-labeled GT165
[8] = target: GPC3 core (sGPC3-His) protein (human) (UniProt P51654); assay: competition ELISA on plate-bound sGPC3; unlabeled GT30 (100-fold) against competitor biotin-labeled GT607
[9] = target: GPC3 core (sGPC3-His) protein (human) (UniProt P51654); assay: competition ELISA on plate-bound sGPC3; unlabeled GT30 (100-fold) inhibits competitor biotin-labeled GT30
[10] = target: GPC3 core (sGPC3-His) protein (human) (UniProt P51654); assay: competition ELISA on plate-bound sGPC3; unlabeled GT30 (100-fold) against competitor biotin-labeled GT30; signal of the labeled antibody
[11] = target: GPC3 core (sGPC3-His) protein (human) (UniProt P51654); assay: competition ELISA on plate-bound sGPC3; unlabeled GT30 (100-fold) against competitor biotin-labeled GT114; signal of the labeled antibody
[12] = target: GPC3 core (sGPC3-His) protein (human) (UniProt P51654); assay: competition ELISA on plate-bound sGPC3; unlabeled GT30 (100-fold) against competitor biotin-labeled GT165; signal of the labeled antibody
[13] = target: GPC3 core (sGPC3-His) protein (human) (UniProt P51654); assay: competition ELISA on plate-bound sGPC3; unlabeled GT30 (100-fold) against competitor biotin-labeled GT607; signal of the labeled antibody

T1 sequence (P51654 25-357): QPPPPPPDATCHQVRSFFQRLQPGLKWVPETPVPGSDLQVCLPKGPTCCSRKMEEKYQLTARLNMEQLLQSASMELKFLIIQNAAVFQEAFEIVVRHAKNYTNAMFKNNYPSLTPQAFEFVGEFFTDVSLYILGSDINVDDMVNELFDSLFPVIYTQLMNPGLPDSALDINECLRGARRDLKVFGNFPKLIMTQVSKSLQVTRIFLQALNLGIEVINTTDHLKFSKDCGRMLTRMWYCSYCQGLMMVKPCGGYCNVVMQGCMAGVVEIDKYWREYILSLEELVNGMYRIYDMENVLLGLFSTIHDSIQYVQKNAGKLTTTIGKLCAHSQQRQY

binding result [1]: binds
binding result [2]: binds
binding result [3]: no binding
binding result [4]: no binding
O.D. 450 [5]: 1.84 O.D. 450
Inhibitory effect (%) [6]: < 0%
Inhibitory effect (%) [7]: 94%
Inhibitory effect (%) [8]: 3%
Inhibitory effect (%) [9]: 96%
O.D. 450 [10]: 0.07 O.D. 450
O.D. 450 [11]: 2.31 O.D. 450
O.D. 450 [12]: 0.098 O.D. 450
O.D. 450 [13]: 2.12 O.D. 450
B1: GT30 antibody (antibody, IgG1, V domains shown)
VH: QVQLQQSGAELARPGASVKLSCRASGYTFTSYGISWMMQRTGQGLEWIGEIYPRSGITYYNEKFKGKATLTADKSSSTAYMQLSSLTSEDSAVYFCARDVSDGYLFPYWGQGTLVTVSA
VL: DIQMTQSPASLSASVGETVTITCRTSENIYSYLAWYQQKQGKSPQLLVYNAKTLPEGVPSRFSGSGSGTQFSLKINSLQPEDFGSYYCQHHYGTPPTFGGGTKLEIKR
